Data published in US20260234738A1.

Legend:
[1] = molecular target: high affinity human FcγR3a 176Val allotype receptor (human) (UniProt P08637); assay: cell-based or functional assay
[2] = molecular target: Bt-SARS-CoV-2 Spike Protein (RBD) (R319-F541).mFc (column 6 of Table 8) (SARS-CoV-2); assay: Luminex beads, supernatant
[3] = molecular target: MOD10-SARS-CoV-2 Spike Protein (RBD)(R319-F541).mmH (SARS-CoV-2); assay: Luminex bead binding, antibody supernatant
[4] = molecular target: MOD11-SARS-CoV-2 Spike Protein (RBD)(R319-F541).mmH (SARS-CoV-2); assay: Luminex bead binding, antibody supernatant
[5] = molecular target: MOD12-SARS-CoV-2 Spike Protein (RBD)(R319-F541).mmH (SARS-CoV-2); assay: Luminex bead binding, antibody supernatant
[6] = molecular target: MOD14-SARS-CoV-2 Spike Protein (RBD)(R319-F541).mmH (SARS-CoV-2); assay: Luminex bead binding, antibody supernatant
[7] = molecular target: MOD15-SARS-CoV-2 Spike Protein (RBD)(R319-F541).mmH (SARS-CoV-2); assay: Luminex bead binding, antibody supernatant
[8] = molecular target: MOD2-SARS-CoV-2 Spike Protein (RBD)(R319-F541).mmH (SARS-CoV-2); assay: Luminex bead binding, antibody supernatant
[9] = molecular target: MOD3-SARS-CoV-2 Spike Protein (RBD)(R319-F541).mmH (SARS-CoV-2); assay: Luminex bead binding, antibody supernatant
[10] = molecular target: MOD4-SARS-CoV-2 Spike Protein (RBD)(R319-F541).mmH (SARS-CoV-2); assay: Luminex bead binding, antibody supernatant
[11] = molecular target: MOD5-SARS-CoV-2 Spike Protein (RBD)(R319-F541).mmH (SARS-CoV-2); assay: Luminex bead binding, antibody supernatant
[12] = molecular target: MOD6-SARS-CoV-2 Spike Protein (RBD)(R319-F541).mmH (SARS-CoV-2); assay: Luminex bead binding, antibody supernatant
[13] = molecular target: MOD7-SARS-CoV-2 Spike Protein (RBD)(R319-F541).mmH (SARS-CoV-2); assay: Luminex bead binding, antibody supernatant
[14] = molecular target: MOD8-SARS-CoV-2 Spike Protein (RBD)(R319-F541).mmH (SARS-CoV-2); assay: Luminex bead binding, antibody supernatant
[15] = molecular target: MOD9-SARS-CoV-2 Spike Protein (RBD)(R319-F541).mmH (SARS-CoV-2); assay: Luminex bead binding, antibody supernatant
[16] = molecular target: SARS-CoV-2 spike protein, Wuhan-Hu-1 sequence (S-wt), on VSV pseudoparticles (SARS-CoV-2) (UniProt P0DTC2); assay: cell-based or functional assay
[17] = molecular target: full-length SARS-COV-2 spike protein (amino acids M1-T1273 of NCBI accession number YP_009724390.1) (SARS-CoV-2) (UniProt P0DTC2); assay: cell-based or functional assay
Bt-MERS.hFc (mAb2664-L2) = assay: Luminex beads, supernatant
MERS.hFc (mAb2664-L1) = assay: Luminex beads, supernatant
MERS.mFc (mAb2663-L1) = assay: Luminex beads, supernatant
[18] = molecular target: MOD1-SARS-CoV-2 Spike Protein (RBD)(R319-F541).mmH (SARS-CoV-2); assay: Luminex bead binding, antibody supernatant
[19] = molecular target: MOD13-SARS-CoV-2 Spike Protein (RBD)(R319-F541).mmH (SARS-CoV-2); assay: Luminex bead binding, antibody supernatant

Chain of high affinity human FcγR3a 176Val allotype receptor (human) (P08637 17-254 F176V): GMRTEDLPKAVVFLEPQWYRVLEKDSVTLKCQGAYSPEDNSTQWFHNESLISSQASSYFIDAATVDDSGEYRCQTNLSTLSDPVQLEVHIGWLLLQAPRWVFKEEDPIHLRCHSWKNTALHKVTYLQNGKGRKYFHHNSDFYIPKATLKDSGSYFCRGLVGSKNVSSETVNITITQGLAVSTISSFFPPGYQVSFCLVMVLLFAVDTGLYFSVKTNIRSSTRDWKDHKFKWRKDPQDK

Row | Substance | ADCC (Activity (%)) [1] [%] | ADCC Mean RLU [1] [RLU] | binding signal (MFI) [3] [MFI] | binding signal (MFI) [4] [MFI] | binding signal (MFI) [5] [MFI] | binding signal (MFI) [6] [MFI] | binding signal (MFI) [7] [MFI] | binding signal (MFI) [8] [MFI] | binding signal (MFI) [9] [MFI] | binding signal (MFI) [10] [MFI] | binding signal (MFI) [11] [MFI] | binding signal (MFI) [12] [MFI] | binding signal (MFI) [13] [MFI] | binding signal (MFI) [14] [MFI] | binding signal (MFI) [15] [MFI] | MFI (MERS.mFc (mAb2663-L1)) [MFI] | further results
1 | mAb10989 (antibody) | 21.5 | 10200 | 15500 | 16800 | 15100 | 18100 | 15900 | 16700 | 18300 | 15800 | 3370 | 19600 | 15200 | 6140 | 17800 | – | MFI [2]: 16100 MFI
2 | mAb10987 (antibody) | 29.4 | 12000 | – | – | – | – | – | – | – | – | – | – | – | – | – | – | Relative neutralization at 5 µg/ml [16]: 100%
3 | IgG1 Control (antibody) | – | – | – | – | – | – | – | – | – | – | – | – | – | – | – | – | ADCP Max (% ADCP), Jurkat/hCD20/SARS-CoV-2 Spike cells [17]: 10.4%
4 | mAb10933 (antibody) | 68.5 | 9740 | – | – | – | – | – | – | – | – | – | – | – | – | – | 22 | MFI (Bt-MERS.hFc (mAb2664-L2)): 26 MFI; MFI (MERS.hFc (mAb2664-L1)): 21 MFI
5 | mAb10934 (antibody) | – | 11700 | 30400 | 30700 | 32900 | 28600 | 27800 | 27700 | 25100 | 31700 | 6650 | 30800 | 29900 | 6410 | 31300 | 77 | binding signal (MFI) [18]: 81 MFI; binding signal (MFI) [19]: 30500 MFI
